From patent EP1032654B1, “THERMOSTABLE GLUCOAMYLASE” (Novozymes A/S, priority 1997, dated 1999)

Columns and labels:
Test in all cases: Kinetic parameters for hydrolysis of maltose and isomaltose
Conditions in all cases: other: At 45°C using 0.05 M NaOAc, pH 4.5
[1] = substrate: OC[C@H]1O[C@H](OC[C@H]2OC(O)[C@H](O)[C@@H](O)[C@@H]2O)[C@H](O)[C@@H](O)[C@@H]1O; format: biochemical, Talaromyces emersonii
Experimental: (§1) 50 microL enzyme diluted in sodium acetate is added,and the activity was determined using the AGU standard method described above. The kinetic parameters: Kcat and Km are measured at 45°C by adding 50 microL enzyme diluted in sodium acetate to preheated 750 microL substrate. Aliquots of 100 microL are removed after 0, 3, 6, 9 and 12 minutes and transferred to 100 microL 0.4M Sodium hydroxide to stop the reaction. A blank is included.
(§2) 20 microL is transferred to a Micro titre plates and 200 microL GOD-Perid solution is added. Absorbance is measured at 650 nm after 30 minutes incubation at room temperature. Glucose is used as standard, and the specific activity is calculated as kcat (sec. ^-1)
(§3) Kinetic Parameters for Hydrolysis of Maltose and Isomaltose by Aspergillus niger AMG and the recombinant Talaromyces emersonii AMG expressed in A. niger.

[2] = substrate: OC[C@H]1O[C@H](O[C@H]2[C@H](O)[C@@H](O)[C@H](O)O[C@@H]2CO)[C@H](O)[C@@H](O)[C@@H]1O; format: biochemical, Talaromyces emersonii
Experimental: as §1, §2, §3

[3] = substrate: OC[C@H]1O[C@H](OC[C@H]2OC(O)[C@H](O)[C@@H](O)[C@@H]2O)[C@H](O)[C@@H](O)[C@@H]1O; format: biochemical, Aspergillus niger
Experimental: as §1, §2, §3

[4] = substrate: OC[C@H]1O[C@H](O[C@H]2[C@H](O)[C@@H](O)[C@H](O)O[C@@H]2CO)[C@H](O)[C@@H](O)[C@@H]1O; format: biochemical, Aspergillus niger
Experimental: as §1, §2, §3

B1: recombinant Talaromyces emersonii AMG (glucoamylase) expressed in A. niger, SEQ ID NO: 7 (Rasamsonia emersonii) (protein)
chain: ATGSLDSFLATETPIALQGVLNNIGPNGADVAGASAGIVVASPSRSDPNYFYSWTRDAALTAKYLVDAFIAGNKDLEQTIQQYISAQAKVQTISNPSGDLSTGGLGEPKFNVNETAFTGPWGRPQRDGPALRATALIAYANYLIDNGEASTADEIIWPIVQNDLSYITQYWNSSTFDLWEEVEGSSFFTTAVQHRALVEGNALATRLNHTCSNCVSQAPQVLCFLQSYWTGSYVLANFGGSGRSGKDVNSILGSIHTFDPAGGCDDSTFQPCSARALANHKVVTDSFRSIYAINSGIAEGSAVAVGRYPEDVYQGGNPWYLATAAAAEQLYDAIYQWKKIGSISITDVSLPFFQDIYPSAAVGTYNSGSTTFNDIISAVQTYGDGYLSIVEKYTPSDGSLTEQFSRTDGTPLSASALTWSYASLLTASARRQSVVPASWGESSASSVPAVCSATSATGPYSTATNTVWPSSGSGSSTTTSSAPCTTPTSVAVTFDEIVSTSYGETIYLAGSIPELGNWSTASAIPLRADAYTNSNPLWYVTVNLPPGTSFEYKFFKNQTDGTIVWEDDPNRSYTVPAYCGQTTAILDDSWQ
[1]
  Km: 53.6 mM
  kcat: 2.70 s⁻¹
  kcat/Km: 0.050 s⁻¹ mM⁻¹
[2]
  Km: 3.8 mM
  kcat: 30.6 s⁻¹
  kcat/Km: 8.1 s⁻¹ mM⁻¹

B2: Aspergillus niger AMG (glucoamylase G1), SEQ ID NO: 9 (Aspergillus niger) (protein)
chain: ATLDSWLSNEATVARTAILNNIGADGAWVSGADSGIVVASPSTDNPDYFYTWTRDSGLVLKTLVDLFRNGDTSLLSTIENYISAQAIVQGISNPSGDLSSGAGLGEPKFNVDETAYTGSWGRPQRDGPALRATAMIGFGQWLLDNGYTSTATDIVWPLVRNDLSYVAQYWNQTGYDLWEEVNGSSFFTIAVQHRALVEGSAFATAVGSSCSWCDSQAPEILCYLQSFWTGSFILANFDSSRSGKDANTLLGSIHTFDPEAACDDSTFQPCSPRALANHKEVVDSFRSIYTLNDGLSDSEAVAVGRYPEDTYYNGNPWFLCTLAAAEQLYDALYQWDKQGSLEVTDVSLDFFKALYSDAATGTYSSSSSTYSSIVDAVKTFADGFVSIVETHAASNGSMSEQYDKSDGEQLSARDLTWSYAALLTANNRRNSVVPASWGETSASSVPGTCAATSAIGTYSSVTVTSWPSIVATGGTTTTATPTGSGSVTSTSKTTATASKTSTSTSSTSCTTPTAVAVTFDLTATTTYGENIYLVGSISQLGDWETSDGIALSADKYTSSDPLWYVTVTLPAGESFEYKFIRIESDDSVEWESDPNREYTVPQACGTSTATVTDTWR
[3]
  Km: 19.8 mM
  kcat: 0.41 s⁻¹
  kcat/Km: 0.021 s⁻¹ mM⁻¹
[4]
  Km: 1.2 mM
  kcat: 10.7 s⁻¹
  kcat/Km: 8.8 s⁻¹ mM⁻¹
